Numbered stars: 1 amine (or outer) side, 2 acyl side, 3 side chain; on linkers, the order of the positions; unused ones are H or OH. Suc = O=C(CCC(=O)[*:2])[*:1]
Target: scFv-L-Aff, heterobivalent fusion protein of anti-hapten scFv (clone J42) and anti-HER2 affibody (Z_(HER2:477))
Assay: SPR

B1: hapten peptide, histamine-succinyl-GSYK (peptide)
peptide: {histamine-Suc}-GSYK-NH2
percent inhibition of the binding of scFv-L-Aff to immobilised hapten: 84%
